Measurements as given in US20240352477A1 (ACADEMIA SINICA, published 2024).

Legend:
[1] = biological target: T1, HXK6-mCherry (Ubi:HXK6-mCherry) (rice, UniProt Q8LQ68 1-506); assay: co-IP with GFP-Trap from co-transfected rice protoplasts, immunoblot
T1 construct: Expressed transiently in rice protoplasts; not shown: mCherry reporter (pUbi:ccdB-mCherry vector)
Procedure: Samples were extracted from rice protoplasts in lysis buffer containing 150 mM NaCl, 0.5% NP4-0, 20 mM Tris-HCl (pH 7.5), and protease inhibitor (Roche) for 1 h at 4° C. and centrifuged at 13,000 rpm for 30 min at 4° C. Supernatants were transferred to new tubes and GFP- or RFP-conjugated proteins were pulled down with GFP-Trap®_MA beads or RFP-Trap®_MA beads. Precipitated proteins were subjected to immunoblot analysis using anti-RFP and anti-GFP antibodies.

HXK5-GFP (Ubi:HXK5-GFP) = biological target: T2, HXK5-GFP (Ubi:HXK5-GFP) (rice, UniProt Q5W676 1-507); assay: co-IP with RFP-Trap from co-transfected rice protoplasts, immunoblot
T2 construct: Expressed transiently in rice protoplasts; not shown: GFP reporter (pUbi:ccdB-GFP vector)
T2 sequence (Q5W676 whole entry): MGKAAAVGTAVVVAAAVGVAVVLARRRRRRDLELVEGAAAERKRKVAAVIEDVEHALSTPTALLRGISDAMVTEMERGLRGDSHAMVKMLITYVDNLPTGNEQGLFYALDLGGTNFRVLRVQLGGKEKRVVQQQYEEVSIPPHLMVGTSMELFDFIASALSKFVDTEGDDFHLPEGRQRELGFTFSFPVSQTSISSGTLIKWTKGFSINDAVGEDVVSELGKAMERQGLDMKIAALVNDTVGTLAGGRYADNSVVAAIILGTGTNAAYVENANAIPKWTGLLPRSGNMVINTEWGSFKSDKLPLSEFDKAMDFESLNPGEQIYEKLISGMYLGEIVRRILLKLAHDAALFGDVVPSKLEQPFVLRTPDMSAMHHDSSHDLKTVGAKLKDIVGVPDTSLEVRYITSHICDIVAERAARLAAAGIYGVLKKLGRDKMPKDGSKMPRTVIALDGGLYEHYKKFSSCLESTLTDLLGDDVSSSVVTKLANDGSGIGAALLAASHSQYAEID
Procedure: (§1) FIGS. 13a to 13b. CIPK15 and HXK5/6 interact and localize at mitochondria under aerobic and hypoxic conditions. (FIG. 13a) Rice protoplasts were co-transfected with Ubi:CIPK15-mCherry and Ubi:HXK5-GFP, Ubi:HX6-GFP or Ubi:GFP (as negative control), before being cultured in medium containing 400 mM glucose with shaking (aerobic) for 12 h. Then, total proteins were extracted and pulled down using RFP trap®. Anti-RFP and anti-GFP antibodies were used to detect co-immunoprecipitated (co-IP) CIPK15-mCherry and HXK5-GFP or GFP, respectively. (FIG. 13b) Rice protoplasts were transfected with Ubi:CIPK15-mCherry, Ubi:HXK5-mCherry or Ubi:HXK6-mCherry and stained with the mitochondrial marker MitoTracker® Green FM, before being examined under confocal microscopy. T: Transmission image. Scale bar=[…]. […]
(§2) To explore these latter interactions in vivo using co-IP assays, we co-transfected rice protoplasts with Ubi:CIPK15-mCherry and Ubi:HXK5-GFP, Ubi:HXK6-GFP or Ubi:GFP (negative control) constructs. […] Our anti-RFP antibodies detected CIPK15-mCherry proteins in all eluents of CIPK15-mCherry co-IP fractions, but anti-GFP antibodies detected HXK5-GFP and HXK6-GFP present in the CIPK15-mCherry complex (FIG. 13a).

HXK6-GFP (Ubi:HXK6-GFP) = biological target: T3, HXK6-GFP (Ubi:HXK6-GFP) (rice, UniProt Q8LQ68 1-506); assay: as above
T3 construct: Expressed transiently in rice protoplasts; also called Ubi:HX6-GFP; not shown: GFP reporter (pUbi:ccdB-GFP vector)
T3 sequence (Q8LQ68 whole entry): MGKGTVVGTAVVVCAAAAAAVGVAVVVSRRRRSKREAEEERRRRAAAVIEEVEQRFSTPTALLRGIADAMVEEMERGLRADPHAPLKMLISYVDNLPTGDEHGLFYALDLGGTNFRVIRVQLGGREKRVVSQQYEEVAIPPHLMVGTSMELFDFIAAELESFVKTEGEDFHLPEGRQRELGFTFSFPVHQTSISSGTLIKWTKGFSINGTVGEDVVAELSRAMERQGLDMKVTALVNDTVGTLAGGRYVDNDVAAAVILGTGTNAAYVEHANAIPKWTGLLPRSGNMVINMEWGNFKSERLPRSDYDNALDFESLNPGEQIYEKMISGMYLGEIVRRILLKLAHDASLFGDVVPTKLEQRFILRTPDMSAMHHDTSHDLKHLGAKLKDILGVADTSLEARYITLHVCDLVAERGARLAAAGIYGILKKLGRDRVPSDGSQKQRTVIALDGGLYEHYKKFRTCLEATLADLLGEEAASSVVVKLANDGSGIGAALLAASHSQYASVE
Procedure: as §1, §2

[2] = biological target: T4, HXK5-nYFP (CaMV35S:HXK5-nYFP) (rice, UniProt Q5W676 1-507); assay: bimolecular fluorescence complementation (BiFC) in rice protoplasts
T4 construct: BiFC construct in rice protoplasts; not shown: N-terminal half of YFP (nYFP, p35S:ccdB-nYFP vector)
T4 sequence (Q5W676 whole entry): as the sequence (Q5W676 whole entry) above
Procedure: (§3) FIGS. 3a to 3g. HXK6 and VDAC1 interact with CIPK15 on mitochondria and suppress CIPK15-regulated promoters. (FIG. 3a) BiFC assay in which rice protoplasts were co-transfected with CaWV35S:cYFP-CIPK15 or CaWV-nYFP (negative control) and CaMV35S:HXK5/6-nYFP or CaMV35S:cYFP (negative control). (FIG. 3b, FIG. 3c, FIG. 3f) Rice protoplasts were transfected with plasmids, cultured in medium containing 400 mM glucose with shaking for 12 h, and then examined under confocal microscopy. Scale bar=[…]. C: cytoplasm; Mt: mitochondria. (FIG. 3b) Rice protoplasts were co-transfected with Ubi:CIPK15-mTagBFP and Ubi:HXK6-mCherry and stained with the mitochondrial marker MitoTracker® Green FM. (FIG. 3c) Rice protoplasts were co-transfected with Ubi:CIPK15-mCherry and Ubi:GFP, Ubi:HXK6-GFP, or Ubi:HXK6(Ri) constructs. (FIG. 3d, FIG. 3g) Rice protoplasts were co-transfected with effector and reporter plasmids, cultured in medium contained 400 mM glucose with shaking, and assayed for luciferase activity. (FIG. 3e) Rice protoplasts were co-transfected with Ubi:VDAC1-GFP, Ubi:CIPK15-HA and Ubi:HXK6-GFP or Ubi:HXK6-mCherry, cultured in medium containing 400 mM glucose with shaking for 12 h, and total proteins were extracted and pulled down using GFP trap®. Anti-GFP, anti-HA and anti-mRFP antibodies were used to detect HXK6-GFP or VDAC1-GFP, CIPK15-HA, and HXK6-mCherry, respectively. […]

[3] = biological target: T5, HXK6-nYFP (CaMV35S:HXK6-nYFP) (rice, UniProt Q8LQ68 1-506); assay: as above
T5 construct: BiFC construct in rice protoplasts; not shown: N-terminal half of YFP (nYFP, p35S:ccdB-nYFP vector)
T5 sequence (Q8LQ68 whole entry): as the sequence (Q8LQ68 whole entry) above
Procedure: as §3

T1 sequence (Q8LQ68 whole entry): as above

B1: VDAC1-GFP (Ubi:VDAC1-GFP) (other, rice, UniProt Q6K548 2-274, looked up)
chain: VGPGLYPEIGKKARDLLYRDYQTDHKFTLTTYTSNGVAITATSTKKADLIFGEIQSQIKNKNITVDVKANSDSNVVTTVTVDELTPGLKSILSFAVPDQRSGKFELQYSHDYAGVSASIGLTASPVVNLSSVFGTKALAVGADVSLDTATGNLTKYNAGLSFSNDDLIASLNLNNKGDSLTASYYHIVNHSATAVGAELTHSFSSNENSLTFGTQHTLDPLTVVKARFNNSGKASALLQHEWRPKSVWTISAEVDTKAIDKSSKVGIAVALKP
notes: Expressed transiently in rice protoplasts and pulled down with GFP-Trap; not shown: GFP reporter (pUbi:ccdB-GFP vector)
binding result [1]: binds

B2: CIPK15-mCherry (Ubi:CIPK15-mCherry) (enzyme)
chain: MESRGKILMERYELGRLLGKGTFGKVHYARNLESNQSVAIKMMDKQQILKVGLSEQIRREITTMRLVAHKNIVQLHEVMATRNKIYFVMEYVKGGELFEKVAKRGKLTEVVAHKYFQQLISAVDYCHSRGVYHRDLKPENLLLDENENLKVSDFGLSALSESKRQDGLLHTTCGTPAYVAPEVISKIGYDGAKSDIWSCGVILFVLVAGYLPFQGPNLMEMYRKIQHGEFRCPGWFSRKLQKLLYKIMDPNPSTRISIQKIKESTWFRKGPEENRILKERTLNENTTKNVAPVLGVRRKKNAHEDVKPMSVTNLNAFEIISFSKGFDLSGMFIVKEWRNEARFTSDKSASTIISKLEDVAKALNLRVRKKDNGVVKMQGRKEGRNGVLQFDIEIFEVTTSYHIIEMKQTSGDSLEYRQLLEEGIRPALKDIVLA
notes: Expressed transiently in rice protoplasts; not shown: mCherry reporter (pUbi:ccdB-mCherry vector)
binding result (HXK5-GFP (Ubi:HXK5-GFP)): binds | binding result (HXK6-GFP (Ubi:HXK6-GFP)): binds

B3: cYFP-CIPK15 (CaMV35S:cYFP-CIPK15) (enzyme)
chain: MESRGKILMERYELGRLLGKGTFGKVHYARNLESNQSVAIKMMDKQQILKVGLSEQIRREITTMRLVAHKNIVQLHEVMATRNKIYFVMEYVKGGELFEKVAKRGKLTEVVAHKYFQQLISAVDYCHSRGVYHRDLKPENLLLDENENLKVSDFGLSALSESKRQDGLLHTTCGTPAYVAPEVISKIGYDGAKSDIWSCGVILFVLVAGYLPFQGPNLMEMYRKIQHGEFRCPGWFSRKLQKLLYKIMDPNPSTRISIQKIKESTWFRKGPEENRILKERTLNENTTKNVAPVLGVRRKKNAHEDVKPMSVTNLNAFEIISFSKGFDLSGMFIVKEWRNEARFTSDKSASTIISKLEDVAKALNLRVRKKDNGVVKMQGRKEGRNGVLQFDIEIFEVTTSYHIIEMKQTSGDSLEYRQLLEEGIRPALKDIVLA
notes: BiFC construct in rice protoplasts; not shown: C-terminal half of YFP (cYFP, p35S:cYFP-ccdB vector)
binding result [2]: binds | binding result [3]: binds
